This note sets out measurements from patent US20200165324A1 (INTERNATIONAL AIDS VACCINE INITIATIVE, published 2020).

Residue numbers refer to the chain shown, from its start.

For assay [1], the target named is T1, BG505 SOSIP.664 gp140 trimer (HIV isolate BG505).
T1 construct: Soluble Env trimer made in HEK293F cells with co-transfected furin (cleaved gp120 and gp41 ectodomain, disulfide-linked); His- and Avi-tagged (biotinylated) versions were also made; also called BG505 SOSIP trimer; BG505 SOSIP.664-His gp140
The assay is described as follows: complex used as bait in flow cytometry sorting. For orientation: Flow cytometry measures light scatter and fluorescence of single cells or particles in a stream.

A further assay has as its target T2, Jo-1 (human, UniProt P12081 1-509, limits assumed).
T2 sequence (looked up): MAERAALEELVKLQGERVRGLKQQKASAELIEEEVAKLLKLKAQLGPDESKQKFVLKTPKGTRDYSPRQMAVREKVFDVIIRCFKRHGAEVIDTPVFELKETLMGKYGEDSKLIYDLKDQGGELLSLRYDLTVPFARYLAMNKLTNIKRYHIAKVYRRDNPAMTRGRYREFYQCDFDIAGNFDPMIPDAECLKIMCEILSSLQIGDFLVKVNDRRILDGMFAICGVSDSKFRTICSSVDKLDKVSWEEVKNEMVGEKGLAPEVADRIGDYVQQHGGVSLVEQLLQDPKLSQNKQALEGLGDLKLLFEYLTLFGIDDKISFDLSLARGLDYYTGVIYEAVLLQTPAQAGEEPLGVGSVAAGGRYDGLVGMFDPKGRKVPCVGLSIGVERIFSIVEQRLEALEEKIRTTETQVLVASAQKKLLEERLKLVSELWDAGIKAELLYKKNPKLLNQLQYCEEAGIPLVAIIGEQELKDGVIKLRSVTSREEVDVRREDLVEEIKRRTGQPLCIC
Put plainly: single autoantigen ELISA (Aesku), cut-off of the manufacturer.

The next assay has as its target T3, SS-B/La (human, UniProt P05455 1-408, limits assumed).
T3 sequence (looked up): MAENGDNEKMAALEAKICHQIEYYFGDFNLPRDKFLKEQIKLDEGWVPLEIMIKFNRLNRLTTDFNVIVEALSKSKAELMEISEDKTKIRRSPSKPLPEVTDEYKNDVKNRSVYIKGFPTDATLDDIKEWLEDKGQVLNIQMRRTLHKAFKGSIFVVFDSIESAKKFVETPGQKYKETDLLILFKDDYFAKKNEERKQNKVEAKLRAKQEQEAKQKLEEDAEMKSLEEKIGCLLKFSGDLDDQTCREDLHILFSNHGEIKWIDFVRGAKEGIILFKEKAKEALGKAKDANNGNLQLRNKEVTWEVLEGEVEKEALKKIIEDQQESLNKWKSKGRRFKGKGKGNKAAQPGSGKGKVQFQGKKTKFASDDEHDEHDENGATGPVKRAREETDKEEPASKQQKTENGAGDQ
The assay is described as above.

Another assay concerns the target T4, centromere B (human, UniProt P07199 1-599).
T4 sequence (looked up): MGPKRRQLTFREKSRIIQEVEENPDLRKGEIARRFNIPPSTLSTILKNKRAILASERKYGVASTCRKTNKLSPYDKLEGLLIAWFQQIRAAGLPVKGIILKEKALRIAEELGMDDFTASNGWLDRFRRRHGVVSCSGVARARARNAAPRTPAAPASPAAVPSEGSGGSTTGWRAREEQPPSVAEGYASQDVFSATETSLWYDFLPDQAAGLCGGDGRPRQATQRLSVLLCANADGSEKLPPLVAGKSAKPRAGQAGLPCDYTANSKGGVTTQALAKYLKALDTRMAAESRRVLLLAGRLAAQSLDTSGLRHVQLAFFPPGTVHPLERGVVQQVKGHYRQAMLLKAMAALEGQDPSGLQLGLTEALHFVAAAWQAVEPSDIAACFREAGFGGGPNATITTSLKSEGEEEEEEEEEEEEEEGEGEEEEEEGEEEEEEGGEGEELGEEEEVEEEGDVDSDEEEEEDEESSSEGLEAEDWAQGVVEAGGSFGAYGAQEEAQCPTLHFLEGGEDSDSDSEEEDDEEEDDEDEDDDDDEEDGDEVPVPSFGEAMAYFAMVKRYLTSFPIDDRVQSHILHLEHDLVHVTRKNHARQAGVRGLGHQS
The description is as above.

Another assay has as its target BG505 G472A. Put plainly: ELISA, gp120 captured from lysed virions. On the technique in general: An ELISA detects its analyte on a solid surface through an enzyme-linked reagent.
Assay [2] has as its target BG505 K282A. Put plainly: ELISA, gp120 captured from lysed virions.
The target of assay [3] is BG505 N279A. The assay is described as follows: ELISA, gp120 captured from lysed virions.
Assay [4] deals with T5, JR-CSF gp120 captured from lysed virions (HIV isolate JR-CSF, UniProt P20871 32-503).
T5 construct: gp120 from NP40-lysed pseudovirus, captured by an anti-C5 gp120 antibody
The assay is described as follows: ELISA, gp120 captured from lysed virions.

In assay [5] the target is T6, BG505 WT recombinant gp120 protein (HIV isolate BG505).
T6 construct: also called WT protein
The assay is described as follows: ELISA on recombinant gp120.

Assay [6] has as its target BG505 D368R recombinant gp120 protein. Put plainly: ELISA on recombinant gp120.
Assay [7] has as its target JR-CSF Env on JR-CSF pseudovirus. Put plainly: cell-based or functional assay.
Assay [8] concerns the target BG505 K282A. Put plainly: cell-based or functional assay.
The target of assay [9] is BG505 Env on BG505 pseudovirus (HIV isolate BG505). The assay is described as follows: cell-based or functional assay.
Assay [10] addresses BG505 N279A. Put plainly: cell-based or functional assay.
Assay [11] addresses T1, BG505 SOSIP.664 gp140 trimer. Put plainly: single particle negative stain electron microscopy.

Description for Jo-1: (§1) Single antigen ELISA assays for SSA/Ro, SS-B/La, Sm, ribonucleoprotein (RNP), Jo-1, double-stranded DNA, centromere B, and histones were purchased from Aesku Diagnostics (Oakland, Calif.). The 96 wells were separately coated with these eight cellular and nuclear antigens for the qualitative detection of mAbs reactivity. A cut-off calibrator was provided by the manufacturer. The negative control was diluted human serum.
Description for SS-B/La: as §1
Description for centromere B: as §1

B1: NC-Cow1 (antibody)
VH: QVQLRESGPSLMKPSQTLSLTCTVSGSSLNDKSVGWVRQAPGKALQWLGSVDTSGNTDYNPGLKSRLSITKDNSKSRISLTVTGMTTEDSATYYCITAHQKTNKKECPEDYTYNPRCPQQYGWSDCDCMGDRFGGYCRQDGCSNYIHRSTYEWYVSAWGQGLLVTVSS
VL: SYELTQPSSVSGSLGQRVSVTCSGSSSNVGNGYVSWYQLIPGSAPRTIIYGDTSRASGVPERFSGSRSGNTATLTISSLQAEDEADFFCASPDDSSSNAVFGSGTTLTVL
notes: detected with anti-human IgG; also called d238-P1B4_NC-Cow1; mature NC-Cow1 HC + mature NC-Cow1 LC
As usually defined, the EC50 is the concentration that produces a half-maximal response. The term EC50 (read off the curve) denotes the concentration at which the effect is half-maximal. Consider B1, for which the binding result in assay [1] is recorded as “binds”; with Jo-1 it was “no binding (tested: 100 µg/ml)”; with SS-B/La, “no binding (tested: 100 µg/ml)”; with centromere B, “no binding (tested: 100 µg/ml)”. The EC50 was 0.37 µg/mL in the assay with BG505 G472A, 1.18 µg/mL in the assay with BG505 K282A [2], 0.11 µg/mL with BG505 N279A [3] and 0.075 µg/mL in assay [4]. In addition, the “EC50 (read off the curve)” value in assay [5] is approximately 0.06 µg/mL; in assay [6] it was approximately 0.04 µg/mL. The “IC50, pseudovirus neutralization” value in [7] was determined as 0.821 µg/mL; in the assay with BG505 K282A [8] it was 0.02 µg/mL; in assay [9] it was 0.006 µg/mL; in the assay with BG505 N279A [10], 0.012 µg/mL.

B2: NC-Cow1 Fab (Fab)
VH: B1 VH
VL: B1 VL
notes: Fab used for negative stain electron microscopy; also called cow Fab NC-Cow1
With B2, the binding result in assay [11] is recorded as “binds”.

B3: NC-Cow2 Fab (Fab)
VH: KVQLRESGPSLVKPSQTLSLTCMVSGSSLSDKAVGWVRQAPGKALEWLGIISAGGNRGYNSGLRSRLTISKDNSKNEVSLRVRSVTTEDSATYFCGTVHQKTQRKPICPDGYSDDSTLRYYSRCSDRDCWRCTGTTYYDTCQCGTYTWIDTHELHVDAWGQGLLVTVSS
VL: B1 VL with S1Q, Y2A, E3V, T5N, V20I, I48L, E61D, F87Y, P92A, D93E
notes: Fab used for negative stain electron microscopy; also called cow Fab NC-Cow2
For B3, the binding result in assay [11] is “binds”.
